Ends that are not written are not given here.
How the values were obtained:
Assay in all cases: cyclic peptide substitution array
ApoC3 peptide D66P = target: T1, ApoC3 peptide D66P (human, not fully specified; cyclic (thioether))
T1 peptide: DKFSEFWPLDPEV
From the text: (§1) S62 and D68 of mature huApoC3 were also highly conserved; substitution of S62 by A or V, and substitution of D68 by E or P, caused decrease of spot intensities by ˜60% or higher. […] Amino acid F64 was completely variable.
(§2) Pre: staining of one of the ApoC3 peptide microarrays was done with the secondary antibody goat anti-human IgG (Fe) DyLight680 (1:5000) and control antibody mouse monoclonal anti-HA (12CA5) DyLight800 (1:2000) to investigate background interactions of the secondary antibody with the antigen-derived peptides that could interfere with the main assays. Subsequent incubation of other ApoC3 peptide microarrays with antibody samples was followed by staining with secondary and control antibodies as well as read-out at scanning intensities of 7/7 (red/green). The additional HA peptides framing the peptide arrays were stained as internal quality control to confirm the assay quality and the peptide microarray integrity.

ApoC3 peptide D66N = target: T2, ApoC3 peptide D66N (human, not fully specified; cyclic (thioether))
T2 peptide: DKFSEFWNLDPEV
From the text: as §1, §2

ApoC3 peptide F64K = target: T3, ApoC3 peptide F64K (human, thioether (positions not given here); not fully specified (bridges); also: cyclic (thioether), positions not given here)
T3 peptide: DKFSEKWDLDPEV
From the text: as §1, §2

ApoC3 peptide S62G = target: T4, ApoC3 peptide S62G (human, not fully specified; cyclic (thioether))
T4 peptide: DKFGEFWDLDPEV
From the text: as §1, §2

ApoC3 peptide K60Q = target: T5, ApoC3 peptide K60Q (human, cyclic (thioether))
T5 peptide: DQFSEFWDLDPEV
From the text: as §1, §2

ApoC3 peptide S62E = target: T6, ApoC3 peptide S62E (human, not fully specified; cyclic (thioether))
T6 peptide: DKFEEFWDLDPEV
From the text: as §1, §2

ApoC3 peptide D68I = target: T7, ApoC3 peptide D68I (human, cyclic (thioether))
T7 peptide: DKFSEFWDLIPEV
From the text: as §1, §2

ApoC3 peptide E63M = target: T8, ApoC3 peptide E63M (human, cyclic (thioether))
T8 peptide: DKFSMFWDLDPEV
From the text: as §1, §2

ApoC3 peptide K60Y = target: T9, ApoC3 peptide K60Y (human, cyclic (thioether))
T9 peptide: DYFSEFWDLDPEV
From the text: as §1, §2

ApoC3 peptide D68W = target: T10, ApoC3 peptide D68W (human, cyclic (thioether))
T10 peptide: DKFSEFWDLWPEV
From the text: as §1, §2

ApoC3 peptide P69V = target: T11, ApoC3 peptide P69V (human, not fully specified; cyclic (thioether))
T11 peptide: DKFSEFWDLDVEV
From the text: as §1, §2

ApoC3 peptide D68C = target: T12, ApoC3 peptide D68C (human, cyclic (thioether))
T12 peptide: DKFSEFWDLCPEV
From the text: as §1, §2

ApoC3 peptide D68V = target: T13, ApoC3 peptide D68V (human, not fully specified; cyclic (thioether))
T13 peptide: DKFSEFWDLVPEV
From the text: as §1, §2

ApoC3 peptide P69I = target: T14, ApoC3 peptide P69I (human, not fully specified; cyclic (thioether))
T14 peptide: DKFSEFWDLDIEV
From the text: as §1, §2

ApoC3 peptide D68S = target: T15, ApoC3 peptide D68S (human, cyclic (thioether))
T15 peptide: DKFSEFWDLSPEV
From the text: as §1, §2

ApoC3 peptide F64R = target: T16, ApoC3 peptide F64R (human, thioether (positions not given here); not fully specified (bridges); also: cyclic (thioether), positions not given here)
T16 peptide: DKFSERWDLDPEV
From the text: as §1, §2

ApoC3 peptide W65C = target: T17, ApoC3 peptide W65C (human, not fully specified; cyclic (thioether))
T17 peptide: DKFSEFCDLDPEV
From the text: as §1, §2

ApoC3 peptide D68F = target: T18, ApoC3 peptide D68F (human, cyclic (thioether))
T18 peptide: DKFSEFWDLFPEV
From the text: as §1, §2

ApoC3 peptide E70S = target: T19, ApoC3 peptide E70S (human, cyclic (thioether))
T19 peptide: DKFSEFWDLDPSV
From the text: as §1, §2

ApoC3 peptide E63Y = target: T20, ApoC3 peptide E63Y (human, cyclic (thioether))
T20 peptide: DKFSYFWDLDPEV
From the text: as §1, §2

ApoC3 peptide K60T = target: T21, ApoC3 peptide K60T (human, cyclic (thioether))
T21 peptide: DTFSEFWDLDPEV
From the text: as §1, §2

ApoC3 peptide D68Q = target: T22, ApoC3 peptide D68Q (human, cyclic (thioether))
T22 peptide: DKFSEFWDLQPEV
From the text: as §1, §2

ApoC3 peptide V71R = target: T23, ApoC3 peptide V71R (human, not fully specified; cyclic (thioether))
T23 peptide: DKFSEFWDLDPER
From the text: as §1, §2

ApoC3 peptide D66V = target: T24, ApoC3 peptide D66V (human, not fully specified; cyclic (thioether))
T24 peptide: DKFSEFWVLDPEV
From the text: as §1, §2

ApoC3 peptide W65A = target: T25, ApoC3 peptide W65A (human, not fully specified; cyclic (thioether))
T25 peptide: DKFSEFADLDPEV
From the text: as §1, §2

ApoC3 peptide F61M = target: T26, ApoC3 peptide F61M (human, cyclic (thioether))
T26 peptide: DKMSEFWDLDPEV
From the text: as §1, §2

ApoC3 peptide L67W = target: T27, ApoC3 peptide L67W (human, thioether (positions not given here); not fully specified (bridges); also: thioether between a C-terminal Cys side chain and a modified N-terminus, the Cys is not in the chain)
T27 peptide: DKFSEFWDWDPEV
From the text: as §1, §2

ApoC3 peptide F61A = target: T28, ApoC3 peptide F61A (human, cyclic (thioether))
T28 peptide: DKASEFWDLDPEV
From the text: as §1, §2

ApoC3 peptide S62H = target: T29, ApoC3 peptide S62H (human, thioether (positions not given here); also: cyclic (thioether), ring places not given here)
T29 peptide: DKFHEFWDLDPEV
From the text: as §1, §2

ApoC3 peptide E70R = target: T30, ApoC3 peptide E70R (human, cyclic (thioether))
T30 peptide: DKFSEFWDLDPRV
From the text: as §1, §2

ApoC3 peptide E70H = target: T31, ApoC3 peptide E70H (human, cyclic (thioether))
T31 peptide: DKFSEFWDLDPHV
From the text: as §1, §2

ApoC3 peptide F61K = target: T32, ApoC3 peptide F61K (human, cyclic (thioether))
T32 peptide: DKKSEFWDLDPEV
From the text: as §1, §2

ApoC3 peptide D66W = target: T33, ApoC3 peptide D66W (human, cyclic (thioether))
T33 peptide: DKFSEFWWLDPEV
From the text: as §1, §2

B1: Llama antibody 5E5 (antibody, V domains shown)
VH: QLQLVESGGGLVQPGGSLRLSCAASGFTFGTYSMRWVRQVPRKALEWVSSISTDGGGTAYRDSVKGRFTISRDNAKNTLYLQMNNLKPEDTAIYYCVIAGYSDWGQGTQVTVSS
VL: ATMLTQSPGSLSVVPGESASISCKTSQGLVHSDGKTYFYWFLQKPGQSPQQLIYQVSNRASGVPDRFTGSGSGTDFTLKISGVKAEDAGVYYCAQGTYYPHTFGSGTRLEIK
notes: detected with goat anti-human IgG (Fc); also called mAb 5E5
% of binding to wild-type peptide (ApoC3 peptide D66P): 0% | % of binding to wild-type peptide (ApoC3 peptide D66N): 0% | % of binding to wild-type peptide (ApoC3 peptide F64K): 114% | % of binding to wild-type peptide (ApoC3 peptide S62G): 0.88% | % of binding to wild-type peptide (ApoC3 peptide K60Q): 178% | % of binding to wild-type peptide (ApoC3 peptide S62E): 0% | % of binding to wild-type peptide (ApoC3 peptide D68I): 0% | % of binding to wild-type peptide (ApoC3 peptide E63M): 13.1% | % of binding to wild-type peptide (ApoC3 peptide K60Y): 56.3% | % of binding to wild-type peptide (ApoC3 peptide D68W): 0% | % of binding to wild-type peptide (ApoC3 peptide P69V): 55.2% | % of binding to wild-type peptide (ApoC3 peptide D68C): 5.46% | % of binding to wild-type peptide (ApoC3 peptide D68V): 0% | % of binding to wild-type peptide (ApoC3 peptide P69I): 48% | % of binding to wild-type peptide (ApoC3 peptide D68S): 0.17% | % of binding to wild-type peptide (ApoC3 peptide F64R): 73.7% | % of binding to wild-type peptide (ApoC3 peptide W65C): 0.08% | % of binding to wild-type peptide (ApoC3 peptide D68F): 0% | % of binding to wild-type peptide (ApoC3 peptide E70S): 55.2% | % of binding to wild-type peptide (ApoC3 peptide E63Y): 90.9% | % of binding to wild-type peptide (ApoC3 peptide K60T): 177% | % of binding to wild-type peptide (ApoC3 peptide D68Q): 0.96% | % of binding to wild-type peptide (ApoC3 peptide V71R): 57.3% | % of binding to wild-type peptide (ApoC3 peptide D66V): 0% | % of binding to wild-type peptide (ApoC3 peptide W65A): 0% | % of binding to wild-type peptide (ApoC3 peptide F61M): 68.7% | % of binding to wild-type peptide (ApoC3 peptide L67W): 1.45% | % of binding to wild-type peptide (ApoC3 peptide F61A): 17.4% | % of binding to wild-type peptide (ApoC3 peptide S62H): 2.89% | % of binding to wild-type peptide (ApoC3 peptide E70R): 35.8% | % of binding to wild-type peptide (ApoC3 peptide E70H): 50.5% | % of binding to wild-type peptide (ApoC3 peptide F61K): 13.5% | % of binding to wild-type peptide (ApoC3 peptide D66W): 0%

— US20190241648A1 (STATEN BIOTECHNOLOGY B V, published 2019)
